According to doi:10.1101/2023.03.23.533910 (bioRxiv, 2023):

Molecular target: the molecule itself
Test: native gel or EMSA

B1: 3xHA-tagged SNC1 (natural protein, Arabidopsis thaliana, UniProt O23530 1-1437, looked up)
chain: MMDTSKDDDMEIASSSGSRRYDVFPSFRGEDVRDSFLSHLLKELRGKAITFIDDEIERSRSIGPELLSAIKESRIAIVIFSKNYASSTWCLNELVEIHKCYTNLNQMVIPIFFHVDASEVKKQTGEFGKVFEETCKAKSEDEKQSWKQALAAVAVMAGYDLRKWPSEAAMIEELAEDVLRKTMTPSDDFGDLVGIENHIEAIKSVLCLESKEARIMVGIWGQSGIGKSTIGRALYSKLSIQFHHRAFITYKSTSGSDVSGMKLRWEKELLSEILGQKDIKIEHFGVVEQRLKQQKVLILLDDVDSLEFLKTLVGKAEWFGSGSRIIVITQDRQLLKAHEIDLIYEVEFPSEHLALTMLCRSAFGKDSPPDDFKELAFEVAKLAGNLPLGLSVLGSSLKGRTKEWWMEMMPRLRNGLNGDIMKTLRVSYDRLHQKDQDMFLYIACLFNGFEVSYVKDLLKDNVGFTMLTEKSLIRITPDGYIEMHNLLEKLGREIDRAKSKGNPGKRRFLTNFEDIHEVVTEKTGTETLLGIRLPFEEYFSTRPLLIDKESFKGMRNLQYLEIGYYGDLPQSLVYLPLKLRLLDWDDCPLKSLPSTFKAEYLVNLIMKYSKLEKLWEGTLPLGSLKEMNLRYSNNLKEIPDLSLAINLEELDLVGCKSLVTLPSSIQNATKLIYLDMSDCKKLESFPTDLNLESLEYLNLTGCPNLRNFPAIKMGCSDVDFPEGRNEIVVEDCFWNKNLPAGLDYLDCLTRCMPCEFRPEQLAFLNVRGYKHEKLWEGIQSLGSLEGMDLSESENLTEIPDLSKATKLESLILNNCKSLVTLPSTIGNLHRLVRLEMKECTGLEVLPTDVNLSSLETLDLSGCSSLRSFPLISTNIVWLYLENTAIEEIPSTIGNLHRLVRLEMKKCTGLEVLPTDVNLSSLETLDLSGCSSLRSFPLISESIKWLYLENTAIEEIPDLSKATNLKNLKLNNCKSLVTLPTTIGNLQKLVSFEMKECTGLEVLPIDVNLSSLMILDLSGCSSLRTFPLISTNIVWLYLENTAIEEIPSTIGNLHRLVKLEMKECTGLEVLPTDVNLSSLMILDLSGCSSLRTFPLISTRIECLYLQNTAIEEVPCCIEDFTRLTVLMMYCCQRLKTISPNIFRLTRLELADFTDCRGVIKALSDATVVATMEDHVSCVPLSENIEYIWDKLYRVAYLQEHFSFRNCFKLDRDARELILRSCFKPVALPGEEIPKYFTYRAYGDSLTVIVPQSSLSQNFLRFKACVVVEPLSKGKGFYPFLKVNVGFNGKQYQKSFSKDAELELCKTDHLFFCSFKFRSEDLPSKLNFNDVEFKFCCSNRIKECGVRLMYVSQEENNQQTTRSEKRMRMTSGTSEEDINLPYGLIVADTGLAALNMELSLGQGEPSSSTSLEGEALCVDYMITEEQDKGIPILFPVSGN
Which “stoichiometry N” value does the source give for B1 here?
The value was about 4.
